Measurements taken from patent US12618845B2, “Methods and compositions for protein sequencing” (Quantum-Si Incorporated, priority 2018, dated 2026).
Read-outs that look alike come from different tables or passages of the source.

Tests used:
[1] = system: amino acid at a terminal position of a polypeptide; details: amino acid identity at a terminal position of a polypeptide; phospho-Y also at an internal position; cited from earlier work
peptide substrates = type: biochemical

B1: H. sapiens Fyn SH2 domain: amino acid recognition protein, SEQ ID NO: 22 (protein, listed as Homo sapiens)
chain: MGAMDSIQAEEWYFGKLGRKDAERQLLSFGNPRGTFLIRESETTKGAYSLSIRDWDDMKGDHVKHYKIRKLDNGGYYITTRAQFETLQQLVQHYSERAAGLSSRLVVPSHK
Binding Pref. [1]: phospho-Y

B2: V. anguillarum APN (protein)
chain: MEEKVWISIGGDATQTALRSGAQSLLPENLINQTSVWVGQVPVSELATLSHEMHENHQRCGGYMVHPSAQSAMSVSAMPLNLNAFSAPEITQQTTVNAWLPSVSAQQITSTITTLTQFKNRFYTTSTGAQASNWIADHWRSLSASLPASKVEQITHSGYNQKSVMLTITGSEKPDEWVVIGGHLDSTLGSRTNESSIAPGADDDASGIAGVTEIIRLLSEQNFRPKRSIAFMAYAAEEVGLRGSQDLANRFKAEGKKVMSVMQLDMTNYQGSREDIVFITDYTDSNFTQYLTQLLDEYLPSLTYGFDTCGYACSDHASWHAVGYPAAMPFESKFNDYNPNIHSPQDTLQNSDPTGFHAVKFTKLGLAYVVEMGNASTPPTPSNQLKNGVPVNGLSASRNSKTWYQFELQEAGNLSIVLSGGSGDADLYVKYQTDADLQQYDCRPYRSGNNETCQFSNAQPGRYSILLHGYNNYSNASLVANAQ
HPLC Assay Conv (peptide substrates; substrate AAPAAP{LYSN3}NH2 (SEQ ID NO: 98), 1 mM peptide, 2 μM enzyme, 2.5 mM ZnCl2, 25 mM Tris pH 8.0, 30° C./1 hr): 50%
HPLC Assay Conv (peptide substrates; substrate KKPKKP{LYSN3}NH2 (SEQ ID NO: 100), 1 mM peptide, 2 μM enzyme, 2.5 mM ZnCl2, 25 mM Tris pH 8.0, 30° C./1 hr): <5%
HPLC Assay Conv (peptide substrates; substrate RRPRRP{LYSN3}NH2 (SEQ ID NO: 96), 1 mM peptide, 2 μM enzyme, 2.5 mM ZnCl2, 25 mM Tris pH 8.0, 30° C./1 hr): >90%

B3: P. falciparum M1 (protein, listed as Plasmodium falciparum)
chain: PKIHYRKDYKPSGFIINQVTLNINIHDQETIVRSVLDMDISKHNVGEDLVFDGVGLKINEISINNKKLVEGEEYTYDNEFLTIFSKFVPKSKFAFSSEVIIHPETNYALTGLYKSKNIIVSQCEATGFRRITFFIDRPDMMAKYDVTVTADKEKYPVLLSNGDKVNEFEIPGGRHGARFNDPPLKPCYLFAVVAGDLKHLSATYITKYTKKKVELYVFSEEKYVSKLQWALECLKKSMAFDEDYFGLEYDLSRLNLVAVSDFNVGAMENKGLNIFNANSLLASKKNSIDFSYARILTVVGHEYFHQYTGNRVTLRDWFQLTLKEGLTVHRENLFSEEMTKTVTTRLSHVDLLRSVQFLEDSSPLSHPIRPESYVSMENFYTTTVYDKGSEVMRMYLTILGEEYYKKGFDIYIKKNDGNTATCEDFNYAMEQAYKMKKADNSANLNQYLLWFSQSGTPHVSFKYNYDAEKKQYSIHVNQYTKPDENQKEKKPLFIPISVGLINPENGKEMISQTTLELTKESDTFVFNNIAVKPIPSLFRGFSAPVYIEDQLTDEERILLLKYDSDAFVRYNSCTNIYMKQILMNYNEFLKAKNEKLESFQLTPVNAQFIDAIKYLLEDPHADAGFKSYIVSLPQDRYIINFVSNLDTDVLADTKEYIYKQIGDKLNDVYYKMFKSLEAKADDLTYFNDESHVDFDQMNMRTLRNTLLSLLSKAQYPNILNEIIEHSKSPYPSNWLTSLSVSAYFDKYFELYDKTYKLSKDDELLLQEWLKTVSRSDRKDIYEILKKLENEVLKDSKNPNDIRAVYLPFTNNLRRFHDISGKGYKLIAEVITKTDKFNPMVATQLCEPFKLWNKLDTKRQELMLNEMNTMLQEPQISNNLKEYLLRLTNK
HPLC Assay Conv (peptide substrates; substrate MetTyr, 1 mM peptide, 1 mM enzyme, 2.5 mM ZnCl2 25 mM Tris pH 8.0, 30° C./1 hr): 7%

B4: Saccharomyces cerevisiae GID10: amino acid recognition protein, SEQ ID NO: 31 (protein, listed as Saccharomyces cerevisiae)
chain: MTSLNIMGRKFILERAKRNDNIEEIYTSAYVSLPSSTDTRLPHFKAKEEDCDVYEEGTNLVGKNAKYTYRSLGRHLDFLRPGLRFGGSQSSKYTYYTVEVKIDTVNLPLYKDSRSLDPHVTGTFTIKNLTPVLDKVVTLFEGYVINYNQFPLCSLHWPAEETLDPYMAQRESDCSHWKRFGHFGSDNWSLTERNFGQYNHESAEFMNQRYIYLKWKERFLLDDEEQENQMLDDNHHLEGASFEGFYYVCLDQLTGSVEGYYYHPACELFQKLELVPTNCDALNTYSSGFEIA
Binding Pref. [1]: P, M, V

B5: Agrobacterium tumifaciens ClpS2: amino acid recognition protein, SEQ ID NO: 2 (protein, listed as Agrobacterium tumifaciens)
chain: MSDSPVDLKPKPKVKPKLERPKLYKVMLLNDDYTPREFVTVVLKAVFRMSEDTGRRVMMTAHRFGSAVVVVCERDIAETKAKEATDLGKEAGFPLMFTTEPEE
Binding Pref. [1]: F, W, Y

B6: Agrobacterium tumifaciens ClpS2 variant 1 C72S: amino acid recognition protein, SEQ ID NO: 5 (protein, listed as Agrobacterium tumifaciens)
chain: MSDSPVDLKPKPKVKPKLERPKLYKVMLLNDDYTPMSFVTVVLKAVFRMSEDTGRRVMMTAHRFGSAVVVVSERDIAETKAKEATDLGKEAGFPLMFTTEPEE
Binding Pref. [1]: F, W, Y

B7: Agrobacterium tumifaciens ClpS2 C71S: amino acid recognition protein, SEQ ID NO: 3 (protein, listed as Agrobacterium tumifaciens)
chain: MSDSPVDLKPKPKVKPKLERPKLYKVMLLNDDYTPREFVTVVLKAVFRMSEDTGRRVMMTAHRFGSAVVVVSERDIAETKAKEATDLGKEAGFPLMFTTEPEE
Binding Pref. [1]: F, W, Y

B8: VPr pAzF (protein)
chain: MPPITQQATVTAWLPQVDASQITGTISSLESFTNRFYTTTSGAQASDWIASEWQALSASLPNASVKQVSHSGYNQKSVVMTITGSEAPDEWIVIGGHLDSTIGSHTNEQSVAPGADDDASGIAAVTEVIRVLSENNFQPKRSIAFMAYAAEEVGLRGSQDLANQYKSEGKNVVSALQLDMTNYKGSAQDVVFITDYTDSNFTQYLTQLMDEYLPSLTYGFDTCGYACSDHASWHNAGYPAAMPFESKFNDYNPRIHTTQDTLANSDPTGSHAKKFTQLGLAYAIEMGSATGDTPTPGNQ
modifications: non-natural residues
HPLC Assay Conv (peptide substrates; substrate […]{LYSN3}NH2 (SEQ ID NO: 107), 200 μM Peptide, 4 μM enzyme, 10 mM MgCl2, 50 mM MOPS pH 8.0, 37° C./1 hr): 96%

B9: UBR-box domain from Homo sapiens UBR2: amino acid recognition protein, SEQ ID NO: 33 (protein, listed as Homo sapiens)
chain: MGPLGSLCGRVFKVGEPTYSCRDCAVDPTCVLCMECFLGSIHRDHRYRMTTSGGGGFCDCGDTEAWKEGPYCQKHE
Binding Pref. [1]: K, R, H

B10: P. horikoshii Tet (protein)
chain: MEVRNMVDYELLKKVVEAPGVSGYEFLGIRDVVIEEIKDYVDEVKVDKLGNVIAHKKGEGPKVMIAAHMDQIGLMVTHIEKNGFLRVAPIGGVDPKTLIAQRFKVWIDKGKFIYGVGASVPPHIQKPEDRKKAPDWDQIFIDIGAESKEEAEDMGVKIGTVITWDGRLERLGKHRFVSIAFDDRIAVYTILEVAKQLKDAKADVYFVATVQEEVGLRGARTSAFGIEPDYGFAIDVTIAADIPGTPEHKQVTHLGKGTAIKIMDRSVICHPTIVRWLEELAKKHEIPYQLEILLGGGTDAGAIHLTKAGVPTGALSVPARYIHSNTEVVDERDVDATVELMTKALENIHELKI
HPLC Assay Conv (peptide substrates; substrate AAPAAP{LYSN3}NH2 (SEQ ID NO: 90), 1 mM peptide, 1 mM enzyme, 2.5 mM ZnCl2, 25 mM Tris pH 8.0, 70° C./1 hr): 100%
HPLC Assay Conv (peptide substrates; substrate DDMDDM{LYSN3}NH2 (SEQ ID NO: 72), 1 mM peptide, 1 mM enzyme, 2.5 mM ZnCl2, 25 mM Tris pH 8.0, 70° C./1 hr): 60%
HPLC Assay Conv (peptide substrates; substrate FFPFFP{LYSN3}NH2 (SEQ ID NO: 94), 1 mM peptide, 1 mM enzyme, 2.5 mM ZnCl2, 25 mM Tris pH 8.0, 70° C./1 hr): 100%
HPLC Assay Conv (peptide substrates; substrate YYPYYP{LYSN3}NH2 (SEQ ID NO: 92), 1 mM peptide, 1 mM enzyme, 2.5 mM ZnCl2, 25 mM Tris pH 8.0, 70° C./1 hr): 100%

B11: NPEPPS: puromycin-sensitive aminopeptidase, SEQ ID NO: 56 (protein)
chain: MWLAAAAPSLARRLLFLGPPPPPLLLLVFSRSSRRRLHSLGLAAMPEKRPFERLPADVSPINYSLCLKPDLLDFTFEGKLEAAAQVRQATNQIVMNCADIDIITASYAPEGDEEIHATGFNYQNEDEKVTLSFPSTLQTGTGTLKIDFVGELNDKMKGFYRSKYTTPSGEVRYAAVTQFEATDARRAFPCWDEPAIKATFDISLVVPKDRVALSNMNVIDRKPYPDDENLVEVKFARTPVMSTYLVAFVVGEYDFVETRSKDGVCVRVYTPVGKAEQGKFALEVAAKTLPFYKDYFNVPYPLPKIDLIAIADFAAGAMENWGLVTYRETALLIDPKNSCSSSRQWVALVVGHELAHQWFGNLVTMEWWTHLWLNEGFASWIEYLCVDHCFPEYDIWTQFVSADYTRAQELDALDNSHPIEVSVGHPSEVDEIFDAISYSKGASVIRMLHDYIGDKDFKKGMNMYLTKFQQKNAATEDLWESLENASGKPIAAVMNTWTKQMGFPLIYVEAEQVEDDRLLRLSQKKFCAGGSYVGEDCPQWMVPITISTSEDPNQAKLKILMDKPEMNVVLKNVKPDQWVKLNLGTVGFYRTQYSSAMLESLLPGIRDLSLPPVDRLGLQNDLFSLARAGIISTVEVLKVMEAFVNEPNYTVWSDLSCNLGILSTLLSHTDFYEEIQEFVKDVFSPIGERLGWDPKPGEGHLDALLRGLVLGKLGKAGHKATLEEARRRFKDHVEGKQILSADLRSPVYLTVLKHGDGTTLDIMLKLHKQADMQEEKNRIERVLGATLLPDLIQKVLTFALSEEVRPQDTVSVIGGVAGGSKHGRKAAWKFIKDNWEELYNRYQGGFLISRLIKLSVEGFAVDKMAGEVKAFFESHPAPSAERTIQQCCENILLNAAWLKRDAESIHQYLLQRKASPPTV
modifications: Puromycin-sensitive aminopeptidase
HPLC Assay Conv (peptide substrates; substrate LeuTyr 5 mM, 700 nM enzyme, 25 mM HEPES, 1 mM Mg(OAc)2, 1 mM DTT, pH 7.5, 37° C./1 hr): 5%

B12: UBR-box domain from Homo sapiens UBR1: amino acid recognition protein, SEQ ID NO: 32 (protein, listed as Homo sapiens)
chain: MGPLGSLCGRVFKSGETTYSCRDCAIDPTCVLCMDCFQDSVHKNHRYKMHTSTGGGFCDCGDTEAWKTGPFCVNHEP
Binding Pref. [1]: K, R, H
